The values below come from patent US20110212105A1.

In this experiment the target is A2MR receptor on Vero cells (monkey (Vero cell line)). Description: cell-based or functional assay.

Chain of RAPR13 (recombinant human LRPAP1 / receptor-associated protein with an N-terminal tag of 6 histidines and a thrombin cleavage site) (P30533 other isoform, or with tags, fused parts or gaps limits assumed): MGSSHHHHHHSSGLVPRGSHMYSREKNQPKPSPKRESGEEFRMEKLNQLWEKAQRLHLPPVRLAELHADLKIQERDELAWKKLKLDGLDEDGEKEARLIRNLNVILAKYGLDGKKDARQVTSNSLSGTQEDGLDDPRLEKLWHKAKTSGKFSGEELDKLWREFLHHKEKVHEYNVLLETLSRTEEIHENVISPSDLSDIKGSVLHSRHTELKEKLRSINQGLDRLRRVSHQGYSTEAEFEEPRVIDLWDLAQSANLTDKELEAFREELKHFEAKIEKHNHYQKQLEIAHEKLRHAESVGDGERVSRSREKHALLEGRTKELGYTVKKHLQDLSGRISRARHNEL

Take “RAPR13 (recombinant human LRPAP1 / receptor-associated protein with an N-terminal tag of 6 histidines and a thrombin cleavage site) (from UniProt P30533 35-357) (ligand)”: the inhibition of the infection of Vero cells by DV1 (West Pac 74), lytic plaque assay, RAPR13 at 100 µg/mL was found to be 65%; the inhibition of the infection of Vero cells by DV2 (S16803), lytic plaque assay, RAPR13 at 100 µg/mL came out at 76%; the inhibition of the infection of Vero cells by DV3 (CH53489), lytic plaque assay, RAPR13 at 100 µg/mL was 60%; the inhibition of the infection of Vero cells by DV4 (TVP360), lytic plaque assay, RAPR13 at 100 µg/mL worked out at 75%.
